1 substance from publication PMC2872913 can be followed below.

For the assay, the target named is taxol-stabilized microtubules. Put plainly: co-sedimentation.

Substance “p150^glued MBD-(His)6 after incubation with aurora A protein kinase and ATP (domain or fragment)” gave a fold weaker affinity against MBD not phosphorylated by aurora A of 5 fold.
